In patent US20210309751A1 one finds Kd data, which are given here for one molecule.

Experiment [1] addresses RevCAR harboring the La 5B9 epitope tag, on RevCAR expressing cells (human). Put plainly: binding assay on RevCAR expressing target cells.
The target of experiment [2] is CD123 (interleukin-3 receptor a chain) on CD123-expressing OCI-AML3 blasts (human) (UniProt P26951). Briefly: binding assay on CD123-expressing OCI-AML3 cells.
UniProt P26951, sequence (P26951 19-378): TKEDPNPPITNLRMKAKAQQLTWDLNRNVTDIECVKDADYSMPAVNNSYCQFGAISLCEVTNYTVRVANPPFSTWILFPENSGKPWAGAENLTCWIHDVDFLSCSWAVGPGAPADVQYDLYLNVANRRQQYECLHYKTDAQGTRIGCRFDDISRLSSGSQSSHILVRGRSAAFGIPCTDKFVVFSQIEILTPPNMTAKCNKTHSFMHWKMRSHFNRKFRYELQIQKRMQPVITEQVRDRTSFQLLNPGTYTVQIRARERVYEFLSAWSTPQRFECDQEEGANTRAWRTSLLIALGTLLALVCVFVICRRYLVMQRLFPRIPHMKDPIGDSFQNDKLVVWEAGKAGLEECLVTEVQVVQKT

B1: AdMo CD123-La5B9 (CD123-specific adapter module with an scFv recognizing the La 5B9 epitope) (bispecific antibody, part only; not given: linkers, domain order, tags, V domains shown, not shown: another chain or arm of the molecule; small tags and cut ends)
VH 1: QVQLVQSGAEVKKPGASVKVSCKASGYTFTHYYIYWVRQAPGQGLEWMGGVNPSNGGTHFNEKFKSRVTMTRDTSISTAYMELSRLRSDDTAVYYCARSEYDYGLGFAYWGQGTLVTVSS
VL 1: DIVMTQSPDSLAVSLGERATINCKSSQSLLNSRTPKNYLAWYQQKPGQPPKLLIYWASTRKSGVPDRFSGSGSGTDFTLTISSLQAEDVAVYYCKQSYNLLTFGGGTKVEIK
VH 2: EVQLQQSGPELVKPGASVKMSCKASGYTFTDYYMKWVKQSHGKSLEWIGDIIPSNGATFYNQKFKGKATLTVDRSSSTAYMHLNSLTSEDSAVYYCTRSHLLRASWFAYWGQGTLVTVS
VL 2: DFVMTQSPSSLTVTAGEKVTMSCKSSQSLLNSGNQKNYLTWYLQKPGQPPKLLIYWASTRESGVPDRFTGSGSGTDFTLTISSVQAEDLAVYYCQNDYSYPYTFGGGTKLEIK
For the molecule B1, the values for the Kd in experiment [1] and in experiment [2] were 0.012 nM and 0.015 nM, respectively.

As usually defined, the Kd is the constant that tells how readily two partners part at equilibrium. Higher therefore signals a looser complex.
